Patent US20250034266A1 (ZAI LAB SHANGHAI, published 2025)
Changes are numbered by the printed parent chain. In names and notes the source's numbering stands.

B1: Hu149-11G1m (antibody, human IgG1)
heavy: EVQLVESGGGLVQPGGSLKLSCAASGFTFNTYAMNWVRQASGKGLEWVGRIRSKSNFYATAYAASVKGRFTISRDDSKNTAYLQMNSLKTEDTAVYYCTRGREYGSSYAMDYWGQGTLVTVSSASTKGPSVFPLAPSSKSTSGGTAALGCLVKDYFPEPVTVSWNSGALTSGVHTFPAVLQSSGLYSLSSVVTVPSSSLGTQTYICNVNHKPSNTKVDKKVEPKSCDKTHTCPPCPAPELVGGPSVFLLPPKPKDTLMISRTPEVTCVVVDVSHEDPEVKFNWYVDGVEVHNAKTKPPEEQYNSTLRVVSVLTVLHQDWLNGKEYKCKVSNKALPAPIEKTISKAKGQPREPQVYTLPPSRDELTKNQVSLTCLVKGFYPSDIAVEWESNGQPENNYKTTPLVLDSDGSFFLYSKLTVDKSRWQQGNVFSCSVMHEALHNHYTQKSLSLSPGK
VL: DIVMTQSPLSLPVTPGEPASISCRSSKSLLHSNANTYLYWFLQKPGQSPQLLIYRMSNLASGVPDRFSGSGSGTDFTLKISRVEAEDVGVYYCMQHLEYPLTFGGGTKVELK
notes: also called Hu149-11G1m (ADCC enhanced variant with L235V/F243L/R292P/Y300L/P396L Fc mutations)
B2: Hu149-9 mIgG2a (antibody, V domains shown)
VH: EVQLVESGGGLVQPGGSLKLSCAASGFTFNTYAMNWVRQASGKGLEWVGRIRSKSNFYATAYAASVKGRFTISRDDSKNTAYLQMNSLKTEDTAVYYCTRGRDYGSSYAMDYWGQGTLVTVSS
VL: B1 VL
B3: Hu149-4-mIgG2a (antibody, V domains shown)
VH: B2 VH with A61Y
VL: B1 VL
B4: Hu149-11G1 (antibody, human IgG1)
heavy: not shown
VL: B1 VL
notes: also called Hu149-11G1 (wild type variant)
B5: Hu348-4 mIgG2a (antibody, V domains shown)
VH: EVQLVESGGGLVQPGGSLKLSCATSGFSFSNYRMHWLRQASGKGLEWVGVITVKSDNYGANYAASVKGRFTISRDDSKSSVYLQMNSLKTEDTAVYYCSSLGRVAYWGQGTLVTVSS
VL: DIQMTQSPSSVSASVGDRVTITCKASQNVDTNVVWYQQKPGQSPKALIYSASSRYSGVPSRFSGSGSGTDFTLTISSLQPEDFATYYCQQHNSFPLTFGQGTKLEIK

Key:
[1] = target: T1, human CCR8 (human, UniProt P51685 1-355); test: cell-based or functional assay
T1 sequence (P51685 whole entry): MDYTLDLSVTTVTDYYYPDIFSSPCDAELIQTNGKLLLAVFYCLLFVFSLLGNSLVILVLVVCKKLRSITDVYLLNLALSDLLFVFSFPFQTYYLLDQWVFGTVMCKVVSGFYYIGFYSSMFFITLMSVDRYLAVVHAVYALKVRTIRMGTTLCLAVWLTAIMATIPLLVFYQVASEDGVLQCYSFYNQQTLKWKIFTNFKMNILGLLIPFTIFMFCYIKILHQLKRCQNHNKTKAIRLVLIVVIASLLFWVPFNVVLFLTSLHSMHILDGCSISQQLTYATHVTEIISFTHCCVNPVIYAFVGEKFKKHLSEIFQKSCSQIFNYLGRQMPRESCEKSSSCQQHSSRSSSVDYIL

[2] = target: T1, human CCR8; test: cell-based or functional assay; remark: listed apart in the source
[3] = target: human CCR8 tagged with ProLink (PK) (human, UniProt P51685 1-355); test: cell-based or functional assay
[4] = target: T1, human CCR8; test: cell-based or functional assay; remark: listed apart in the source
[5] = target: T1, human CCR8; test: flow cytometry on TALL-1 cells (endogenous CCR8)
Procedure: Briefly, a total of 5×10⁴ cells for each well were seeded in 96-well plates and washed with FACS buffer (DPBS containing 1.5% FBS) for once. Antibodies were prepared with 3-fold serial dilution ranging from 100 nM to 0.00508 nM in FACS buffer. Cells were incubated with 50 μL of diluted antibodies at 4° C. for 40 minutes. After primary antibody incubation, cells were washed twice by FACS buffer. Then, cells were stained by Alexa Flu647-labeled anti-human IgG Fc secondary antibody (Jackson ImmunoResearch, #109606170) at 1:500 dilution in FACS buffer for 40 minutes at 4° C. After 2 times wash with FACS buffer, flow cytometry (BD FACS Celesta) was performed to measure the binding affinities of antibodies.

[6] = target: T2, human CCR8 (human, UniProt P51685 1-355); test: cell-based or functional assay; remark: listed apart in the source
T2 sequence (P51685 whole entry): as above

[7] = target: T2, human CCR8; test: cell-based or functional assay; remark: listed apart in the source
[8] = target: T1, human CCR8; test: cell-based or functional assay; remark: listed apart in the source

human CCR8 tagged with ProLink (PK), sequence (P51685 whole entry): as above

Binder	EC50, ADCC reporter, F variant CD16a/NFAT-Jurkat, target CHO-K1-human CCR8 cells [1] [pM]	EC50, ADCC reporter, F variant CD16a/NFAT-Jurkat, target HuT78 cells [1] [pM]	EC50, ADCC reporter, V variant CD16a/NFAT-Jurkat, target CHO-K1-human CCR8 cells [1] [pM]	EC50, ADCC reporter, V variant CD16a/NFAT-Jurkat, target HuT78 cells [1] [pM]	Max (RLU), ADCC reporter, F variant CD16a/NFAT-Jurkat, target CHO-K1-human CCR8 cells [1] [RLU]	Max (RLU), ADCC reporter, F variant CD16a/NFAT-Jurkat, target HuT78 cells [1] [RLU]	Max (RLU), ADCC reporter, V variant CD16a/NFAT-Jurkat, target CHO-K1-human CCR8 cells [1] [RLU]	Max (RLU), ADCC reporter, V variant CD16a/NFAT-Jurkat, target HuT78 cells [1] [RLU]	EC50, ADCC with human PBMCs, target CHO-K1-human CCR8 cells [2] [pM]	Max specific lysis (%), ADCC with human PBMCs, target CHO-K1-human CCR8 cells [2] [%]	IC50, inhibition of CCL1 induced β-Arrestin recruitment, CHO-K1-human CCR8 β-Arrestin cells [3] [pM]	EC50, ADCC with human PBMCs (LDH release), target TALL-1 cells [4] [pM]	EC50 [5] [pM]	IC50, inhibition of CCL1 induced β-Arrestin recruitment [6] [pM]	IC50, blocking of CCL1 induced cell migration [7] [pM]	EC50, ADCC reporter, 158F CD16a/NFAT-Jurkat, target TALL-1 cells [8] [pM]	EC50, ADCC reporter, 158V CD16a/NFAT-Jurkat, target TALL-1 cells [8] [pM]
B1	5.6	16.4	7.25	20.3	8.28e+06	1.59e+07	3.93e+06	8.7e+06	0.085	46.6	2090	0.682	328				
B2														8640	1920		
B3															2950		
B4	58.6	402	39.1	586	4.71e+06	4.07e+06	2.03e+06	3.89e+06	13.9	52.5		12.1	315			120	65.8
B5														860000			
